Source: PMC9482650, “Quantitative fragmentomics allow affinity mapping of interactomes” (Nature Communications, 2022)

T1: CARD11, Q9BXL7
T1 sequence (Q9BXL7 662-765, limits assumed, looked up): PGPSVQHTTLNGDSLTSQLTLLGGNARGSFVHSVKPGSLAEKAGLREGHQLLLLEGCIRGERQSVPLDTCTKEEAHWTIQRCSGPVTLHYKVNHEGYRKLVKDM

T2: HTRA3, P83110
T2 sequence (P83110 354-453, limits assumed, looked up): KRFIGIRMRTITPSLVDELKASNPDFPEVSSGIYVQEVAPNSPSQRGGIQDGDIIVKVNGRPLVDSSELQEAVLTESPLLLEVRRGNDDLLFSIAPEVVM

T3: HTRA4, P83105
T3 sequence (P83105 378-476, limits assumed, looked up): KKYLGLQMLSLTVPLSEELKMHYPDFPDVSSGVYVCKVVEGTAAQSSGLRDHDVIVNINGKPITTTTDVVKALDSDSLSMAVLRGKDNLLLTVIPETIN

T4: LNX2_3, Q8N448
T4 sequence (Q8N448 463-564, limits assumed, looked up): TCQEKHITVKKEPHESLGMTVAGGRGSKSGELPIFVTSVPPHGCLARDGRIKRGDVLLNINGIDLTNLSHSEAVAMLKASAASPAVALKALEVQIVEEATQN

T5: MPP7, Q5T2T1
T5 sequence (Q5T2T1 134-230, limits assumed, looked up): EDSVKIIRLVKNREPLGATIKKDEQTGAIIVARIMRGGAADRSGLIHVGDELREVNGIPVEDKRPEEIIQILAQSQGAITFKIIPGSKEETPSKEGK

T6: PARD3B_1, Q8TEW8
T6 sequence (Q8TEW8 196-299, limits assumed, looked up): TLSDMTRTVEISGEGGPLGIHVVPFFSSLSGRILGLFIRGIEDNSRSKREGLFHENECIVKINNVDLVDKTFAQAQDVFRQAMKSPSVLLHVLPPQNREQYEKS

T7: PCLO, Q9Y6V0
T7 sequence (Q9Y6V0 4491-4600, limits assumed, looked up): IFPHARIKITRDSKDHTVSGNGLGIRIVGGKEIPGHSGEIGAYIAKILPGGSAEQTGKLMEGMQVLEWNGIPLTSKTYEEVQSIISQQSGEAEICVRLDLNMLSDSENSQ

T8: SNTA1, Q13424
T8 sequence (Q13424 82-180, limits assumed, looked up): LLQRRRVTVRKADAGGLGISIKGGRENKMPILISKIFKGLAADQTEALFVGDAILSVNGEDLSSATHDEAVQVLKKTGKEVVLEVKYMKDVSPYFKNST

T9: SNTG1, Q9NSN8
T9 sequence (Q9NSN8 52-150, limits assumed, looked up): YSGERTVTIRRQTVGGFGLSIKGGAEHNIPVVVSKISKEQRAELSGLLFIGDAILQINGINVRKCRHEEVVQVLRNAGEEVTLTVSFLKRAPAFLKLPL

T10: SNTG2, Q9NY99
T10 sequence (Q9NY99 68-166, limits assumed, looked up): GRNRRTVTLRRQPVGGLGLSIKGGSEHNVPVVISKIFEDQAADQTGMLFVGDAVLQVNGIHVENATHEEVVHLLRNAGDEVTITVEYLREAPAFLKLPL

T11: SYNJ2BP, P57105
T11 sequence (P57105 8-110, limits assumed, looked up): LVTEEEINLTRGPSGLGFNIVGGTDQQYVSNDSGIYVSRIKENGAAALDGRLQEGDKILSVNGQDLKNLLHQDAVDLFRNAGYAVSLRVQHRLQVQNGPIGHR


Legend:
Test in all cases: holdup assay
Set-up in all cases: key: below the threshold = too weak to quantify, mostly under pKd 3.1 to 4
Settings in all cases: plain residues with an end cap or a label only (N-terminal biotin on a linker: ado-ado)
[1] = molecular target: AHNAK1, Q09666
[2] = molecular target: ARHGEF12, Q9NZN5-2
[3] = molecular target: T1, CARD11, Q9BXL7
[4] = molecular target: DLG2_3, Q15700
[5] = molecular target: T2, HTRA3, P83110
[6] = molecular target: T3, HTRA4, P83105
[7] = molecular target: IL16_1, Q14005
[8] = molecular target: Inadl_3, Q8NI35
[9] = molecular target: Inadl_4, Q8NI35
[10] = molecular target: Inadl_9, Q8NI35
[11] = molecular target: T4, LNX2_3, Q8N448
[12] = molecular target: MAGI2_5, Q86UL8
[13] = molecular target: MAST1, Q9Y2H9
[14] = molecular target: T5, MPP7, Q5T2T1
[15] = molecular target: NHERF2_2, Q15599
[16] = molecular target: NHERF4_1, Q86UT5-2
[17] = molecular target: NOS1, P29475
[18] = molecular target: T6, PARD3B_1, Q8TEW8
[19] = molecular target: PARD3_3, Q8TEW0
[20] = molecular target: T7, PCLO, Q9Y6V0
[21] = molecular target: SCRIB_2, Q14160
[22] = molecular target: T8, SNTA1, Q13424
[23] = molecular target: T9, SNTG1, Q9NSN8
[24] = molecular target: T10, SNTG2, Q9NY99
[25] = molecular target: T11, SYNJ2BP, P57105
[26] = molecular target: TJP1_2, Q07157
TJP1_2, Q07157, sequence (Q07157 181-274): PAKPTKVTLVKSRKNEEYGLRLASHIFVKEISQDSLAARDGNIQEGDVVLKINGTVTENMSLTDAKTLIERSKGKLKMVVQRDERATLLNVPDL

SCRIB_2, Q14160, sequence (Q14160 857-960): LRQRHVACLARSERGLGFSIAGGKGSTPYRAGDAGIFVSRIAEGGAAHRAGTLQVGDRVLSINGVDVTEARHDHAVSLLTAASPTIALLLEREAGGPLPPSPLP
NHERF4_1, Q86UT5-2, sequence (Q86UT5 other isoform, or with tags, fused parts or gaps): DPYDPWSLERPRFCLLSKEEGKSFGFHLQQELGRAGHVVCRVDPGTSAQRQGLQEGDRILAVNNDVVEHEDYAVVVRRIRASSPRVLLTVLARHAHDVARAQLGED
Inadl_3, Q8NI35, sequence (Q8NI35 359-469): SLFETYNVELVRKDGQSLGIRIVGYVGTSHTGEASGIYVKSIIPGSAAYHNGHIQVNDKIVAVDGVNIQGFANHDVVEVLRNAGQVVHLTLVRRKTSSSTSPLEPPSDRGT
ARHGEF12, Q9NZN5-2, sequence (Q9NZN5 other isoform, or with tags, fused parts or gaps): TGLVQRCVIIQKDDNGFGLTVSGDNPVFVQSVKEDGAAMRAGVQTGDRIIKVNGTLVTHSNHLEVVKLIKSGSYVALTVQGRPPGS
NHERF2_2, Q15599, sequence (Q15599 142-238): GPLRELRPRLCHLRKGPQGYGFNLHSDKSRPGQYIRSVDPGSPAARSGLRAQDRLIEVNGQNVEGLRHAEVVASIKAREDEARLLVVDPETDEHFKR
AHNAK1, Q09666, sequence (Q09666 4-100): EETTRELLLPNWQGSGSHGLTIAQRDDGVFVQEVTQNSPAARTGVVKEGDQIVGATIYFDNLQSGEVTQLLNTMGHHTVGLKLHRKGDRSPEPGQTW
Inadl_9, Q8NI35, sequence (Q8NI35 1530-1615): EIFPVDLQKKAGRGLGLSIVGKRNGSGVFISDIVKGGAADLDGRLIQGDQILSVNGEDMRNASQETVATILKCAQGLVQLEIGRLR
MAGI2_5, Q86UL8, sequence (Q86UL8 915-1017): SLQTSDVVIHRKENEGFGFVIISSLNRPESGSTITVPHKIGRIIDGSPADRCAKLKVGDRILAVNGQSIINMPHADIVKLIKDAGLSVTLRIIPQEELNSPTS
MAST1, Q9Y2H9, sequence (Q9Y2H9 962-1065): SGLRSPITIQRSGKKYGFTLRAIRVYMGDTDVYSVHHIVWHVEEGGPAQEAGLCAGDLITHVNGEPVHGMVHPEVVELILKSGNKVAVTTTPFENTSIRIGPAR
NOS1, P29475, sequence (P29475 9-101): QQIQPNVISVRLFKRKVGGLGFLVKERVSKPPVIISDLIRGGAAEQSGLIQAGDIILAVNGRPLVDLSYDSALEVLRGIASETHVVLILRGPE
Inadl_4, Q8NI35, sequence (Q8NI35 547-651): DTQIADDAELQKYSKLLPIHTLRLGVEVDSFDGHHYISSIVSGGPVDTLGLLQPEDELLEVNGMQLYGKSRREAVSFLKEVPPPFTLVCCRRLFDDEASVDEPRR
PARD3_3, Q8TEW0, sequence (Q8TEW0 582-685): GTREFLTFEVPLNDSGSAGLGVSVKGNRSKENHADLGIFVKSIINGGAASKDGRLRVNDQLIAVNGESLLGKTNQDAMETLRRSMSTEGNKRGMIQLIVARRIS
IL16_1, Q14005, sequence (Q14005 210-306): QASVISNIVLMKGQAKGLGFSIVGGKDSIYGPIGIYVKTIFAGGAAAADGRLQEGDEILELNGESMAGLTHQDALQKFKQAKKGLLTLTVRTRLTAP

| Binder | pKd [1] | pKd [2] | pKd [3] | pKd [4] | pKd [5] | pKd [6] | pKd [7] | pKd [8] | pKd [9] | pKd [10] | pKd [11] | pKd [12] | pKd [13] | pKd [14] | pKd [15] | pKd [16] | pKd [17] | pKd [18] | pKd [19] | pKd [20] | also measured |
| --- | --- | --- | --- | --- | --- | --- | --- | --- | --- | --- | --- | --- | --- | --- | --- | --- | --- | --- | --- | --- | --- |
| KSRPENGTVC [TMEM178B, H3BS89] | below the threshold | 3.65 | below the threshold | below the threshold | 4.44 | below the threshold | below the threshold | below the threshold | below the threshold | below the threshold | below the threshold | below the threshold | below the threshold | below the threshold | below the threshold | below the threshold | 3.47 | below the threshold | below the threshold | below the threshold | pKd [21]: below the threshold; pKd [22]: below the threshold; pKd [23]: below the threshold; pKd [24]: below the threshold; pKd [25]: 3.93; pKd [26]: below the threshold |
| IQISELETNV [SLC1A7, O00341] | below the threshold | 3.71 | below the threshold | below the threshold | below the threshold | 3.9 | 4.05 | 4 | below the threshold | below the threshold | below the threshold | 4.11 | 4.71 | below the threshold | 3.56 | below the threshold | below the threshold | below the threshold | 3.68 | below the threshold | pKd [21]: 4.16; pKd [22]: 4.98; pKd [23]: 5.26; pKd [24]: 4.91; pKd [25]: 4.56; pKd [26]: below the threshold |
| TNSKQGETTV [FZD1, Q9UP38] | below the threshold | below the threshold | below the threshold | 3.77 | below the threshold | 3.79 | below the threshold | below the threshold | below the threshold | 3.57 | below the threshold | below the threshold | 4.32 | below the threshold | 3.51 | below the threshold | 3.53 | below the threshold | 3.58 | below the threshold | pKd [21]: 4.01; pKd [22]: 4.51; pKd [23]: 4.31; pKd [24]: 4.16; pKd [25]: 4.7; pKd [26]: 3.48 |
